Molecular target: T1, polo-like kinase 1 (PLK1), full-length (human, UniProt P53350 1-603)
T1 construct: Endogenous, FLAG-tagged and His-tagged forms are merged here; also called FLAG-PLK1; Flag-PLK1
Test: CoIP of FLAG-PLK1 with Myc-RXRα mutants in HeLa cells (FIG. 27)

T1 sequence (P53350 whole entry): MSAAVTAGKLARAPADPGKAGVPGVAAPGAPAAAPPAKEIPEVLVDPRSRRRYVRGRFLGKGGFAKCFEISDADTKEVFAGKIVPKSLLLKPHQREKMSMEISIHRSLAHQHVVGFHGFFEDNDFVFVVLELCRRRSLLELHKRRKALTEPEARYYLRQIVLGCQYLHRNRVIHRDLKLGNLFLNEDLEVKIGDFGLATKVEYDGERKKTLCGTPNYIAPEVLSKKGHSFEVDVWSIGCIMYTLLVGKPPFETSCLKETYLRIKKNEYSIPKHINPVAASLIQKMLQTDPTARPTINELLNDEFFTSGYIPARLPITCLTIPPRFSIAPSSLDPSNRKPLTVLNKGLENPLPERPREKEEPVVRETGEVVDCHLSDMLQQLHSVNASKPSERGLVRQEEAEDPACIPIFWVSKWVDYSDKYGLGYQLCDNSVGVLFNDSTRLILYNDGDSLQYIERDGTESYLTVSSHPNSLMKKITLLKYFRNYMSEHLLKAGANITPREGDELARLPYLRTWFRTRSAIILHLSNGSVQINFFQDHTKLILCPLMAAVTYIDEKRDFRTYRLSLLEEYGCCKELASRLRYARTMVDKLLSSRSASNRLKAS

B1: RXRα-S56A/S70A (RXRα-2A) (receptor)
chain: MDTKHFLPLDFSTQVNSSLTSPTGRGSMAAPSLHPSLGPGIGSPGQLHSPISTLSAPINGMGPPFSVISAPMGPHSMSVPTTPTLGFSTGSPQLSSPMNPVSSSEDIKPPLGLNGVLKVPAHPSGNMASFTKHICAICGDRSSGKHYGVYSCEGCKGFFKRTVRKDLTYTCRDNKDCLIDKRQRNRCQYCRYQKCLAMGMKREAVQEERQRGKDRNENEVESTSSANEDMPVERILEAELAVEPKTETYVEANMGLNPSSPNDPVTNICQAADKQLFTLVEWAKRIPHFSELPLDDQVILLRAGWNELLIASFSHRSIAVKDGILLATGLHVHRNSAHSAGVGAIFDRVLTELVSKMRDMQMDKTELGCLRAIVLFNPDSKGLSNPAEVEALREKVYASLEAYCKHKYPEQPGRFAKLLLRLPALRSIGLKCLEHLFFFKLIGDTPIDTFLMEMLEAPHQMT
notes: Myc-tagged (CoIP) and GST-fused (kinase assay) forms are merged; also called RXR-S56A/S70A(2A); GST-RXRα-2A
Does B1 bind?
Result: no binding

— patent publication US20240034785A1, “RXR-ALPHA BINDERS AND RXR-ALPHA/PLK1 MODULATORS” (NUCMITO PHARMACEUTICALS CO. LTD., priority 2020, published 2024)
